The values below come from patent US11440969B2, “Use of human epididymis protein 4 (HE4) for assessing responsiveness of MUC 16-positive cancer treatment” (Genentech, Inc., priority 2016, dated 2022).

In this test the test system is platinum-resistant ovarian cancer. The experiment in a line: Clinical activity of anti-MUC16-TDC (RECIST v1.1) in ovarian cancer patients. Conditions: 1.0-5.6 mg/kg q3w. Format: in vivo, human. As to the method:
This Phase I, multicenter, open-label, dose escalation study was designed to identify the recommended Phase II dose (RP2D) of DMUC4064A (anti-MUC16-TDC) in platinum-resistant ovarian cancer patients and unresectable pancreatic cancer patients. The study employed a traditional 3+3 dose escalation design to determine the maximum tolerated dose (MTD), and the patients were administered intravenous (IV) DMUC4064A (Genentech Inc.) 1.0-5.6 mg/kg every three weeks (q3w) to evaluate the safety, tolerability, and pharmacokinetics of DMUC4064A.
Ovarian cancer patients had advanced epithelial ovarian, primary peritoneal, or fallopian tube cancer that progressed or relapsed within 6 months after the most recent treatment with a platinum-containing chemotherapy regimen. […] Progression or relapse from prior platinum-based chemotherapy was documented by RECIST v1.1. Patients were allowed ≤2 prior chemotherapy regimens.
Treatment (using anti-MUC16-TDC) response rate was estimated for patients with disease that was measurable by RECIST guidelines. Patients were identified as having a partial response (PR), stable disease (SD), or progressive disease (PD) as measured by RECIST v1.1. Objective response is defined as a complete or partial response, as determined by investigator assessment and confirmed by repeat assessments ≥4 weeks after initial documentation. Duration of objective response was defined as the time from the initial complete or partial response to the time of disease progression or death.

Where [1] appears, read: end point of the clinical trial.

B1: DMUC4064A (conjugate, chains of the INN, looked up)
VH: EVQLVESGGGLVQPGGSLRLSCAASGYSITNDYAWNWVRQAPGKGLEWVGYISYSGYTTYNPSLKSRFTISRDTSKNTLYLQMNSLRAEDTAVYYCARWTSGLDYWGQGTLVTVSS
VL: DIQMTQSPSSLSASVGDRVTITCKASDLIHNWLAWYQQKPGKAPKLLIYGATSLETGVPSRFSGSGSGTDFTLTISSLQPEDFATYYCQQYWTTPFTFGQGTKVEIK
modifications: vedotin payload (MMAE)
Take B1: the “additional patients with a partial response at some point during the study” value was “six”. Besides, under “conclusion of the study”, the “patients with progressive disease” value was “ten”. For the same molecule, under setting [1], the “patients who maintained stable disease” value came out at 23 and the “patients with a partial response to treatment” value is listed as “two”.
